Patent US20090202547A1 (FIBRON, published 2009)
Numbering of substitutions follows the chain as printed.

B1: MSPRO11 (Fab, V domains shown)
VH: QVQLVQSGAEVKKPGASVKVSCKASGYTFTSYYMHWVRQAPGQGLEWMGWINPNSGGTNYAQKFQGRVTMTRDTSISTAYMELSSLRSEDTAVYYCARYYGSSLYHYVFGGFIDYWGQGTLVTVSS
VL: DIALTQPASVSGSPGQSITISCTGTSSDVGGYNYVSWYQQHPGKAPKLMIYDVSNRPSGVSNRFSGSKSGNTASLTISGLQAEDEADYYCQSHHFYEVFGGGTKLTVLG
B2: MSPRO54 (Fab, V domains shown)
VH: QVQLVQSGAEVKKPGASVKVSCKASGYTFTSYYMHWVRQAPGQGLEWMGWINPNSGGTNYAQKFQGRVTMTRDTSISTAYMELSSLRSEDTAVYYCARNMAYTNYQYVNMPHFDYWGQGTLVTVSS
VL: DIELTQPPSVSVAPGQTARISCSGDALGDKYASWYQQKPGQAPVLVIYDDSDRPSGIPERFSGSNSGNTATLTISGTQAEDEADYYCQSYDYFKLVFGGGTKLTVLG
B3: MSPRO28 (Fab, V domains shown)
VH: QVQLVQSGAEVKKPGSSVKVSCKASGGTFSSYAISWVRQAPGQGLEWMGGIIPIFGTANYAQKFQGRVTITADESTSTAYMELSSLRSEDTAVYYCARGGGWVSHGYYYLFDLWGQGTLVTVSS
VL: DIQMTQSPSSLSASVGDRVTITCRASQGISSYLAWYQQKPGKAPKLLIYAASSLQSGVPSRFSGSGSGTDFTLTISSLQPEDFAVYYCFQYGSIPPTFGQGTKVEIKR
B4: MSPRO26 (Fab, V domains shown)
VH: QVQLVQSGAEVKKPGASVKVSCKASGYTFTSYYMHWVRQAPGQGLEWMGWINPNSGGTNYAQKFQGRVTMTRDTSISTAYMELSSLRSEDTAVYYCARGYWYAYFTYINYGYFDNWGQGTLVTVSS
VL: DIALTQPASVSGSPGQSITISCTGTSSDVGGYNYVSWYQQHPGKAPKLMIYDVSNRPSGVSNRFSGSKSGNTASLTISGLQAEDEADYYCQSYDNNSDVVFGGGTKLTVLG
B5: MSPRO29 (Fab, V domains shown)
VH: QVQLVQSGAEVKKPGASVKVSCKASGYTFTSYYMHWVRQAPGQGLEWMGWINPNSGGTNYAQKFQGRVTMTRDTSISTAYMELSSLRSEDTAVYYCARTWQYSYFYYLDGGYYFDIWGQGTLVTVSS
VL: DIVLTQSPATLSLSPGERATLSCRASQSVSSSYLAWYQQKPGQAPRLLIYGASSRATGVPARFSGSGSGTDFTLTISSLEPEDFATYYCQQTNNAPVTFGQGTKVEIKR
B6: MSPRO24 (Fab, V domains shown)
VH: QVQLVQSGAEVKKPGSSVKVSCKASGGTFSSYAISWVRQAPGQGLEWMGGIIPIFGTANYAQKFQGRVTITADESTSTAYMELSSLRSEDTAVYYCARVNHWTYTFDYWGQGTLVTVSS
VL: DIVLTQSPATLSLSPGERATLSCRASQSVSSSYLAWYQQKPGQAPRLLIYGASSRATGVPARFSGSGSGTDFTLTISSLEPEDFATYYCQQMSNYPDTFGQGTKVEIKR
B7: iodinated MSPRO29 (Fab, V domains shown)
VH: B5 VH
VL: B5 VL
modifications: iodinated with IodoGen (cold NaI at 0.04 mM or 1 mM, or 125I); sites not stated
notes: MSPRO29 Fab after iodination; which preparation (low I, high I, 125I) is told in each row; also called modified MSPRO29 (low I; high I)
B8: MS-Pro-12-dHLX-MH (Fab, V domains shown)
VH: QVQLKESGPALVKPTQTLTLTCTFSGFSLSTSGVGVGWIRQPPGKALEWLALIDWDDDKYYSTSLKTRLTISKDTSKNQVVLTMTNMDPVDTATYYCARYHSWYEMGYYGSTVGYMFDYWGQGTLVTVSS
VL: B2 VL with Y92F, F93D, K94F, L95A
notes: Fab mini-antibody format Fab-dHLX-MH, a dimer of the Fab monomer; also called MSPRO12 dimeric dHLX format; Fab-dHLX
B9: MS-Pro-2-dHLX-MH (Fab, V domains shown)
VH: QVQLVQSGAEVKKPGASVKVSCKASGYTFTSYYMHWVRQAPGQGLEWMGWINPNSGGTNYAQKFQGRVTMTRDTSISTAYMELSSLRSEDTAVYYCARDFLGYEFDYWGQGTLVTVSS
VL: DIELTQPPSVSVAPGQTARISCSGDALGDKYASWYQQKPGQAPVLVIYDDSDRPSGIPERFSGSNSGNTATLTISGTQAEDEADYYCQSYDYSADYVFGGGTKLTVLG
notes: Fab mini-antibody format Fab-dHLX-MH, a dimer of the Fab monomer made as a fusion protein; also called MSPRO2 dimeric dHLX format; Fab-dHLX
B10: MS-Pro-21-dHLX-MH (Fab, V domains shown)
VH: B6 VH with V99D, H101W, W102F, T103K, Y104P, T105F, F106S, Y108V
VL: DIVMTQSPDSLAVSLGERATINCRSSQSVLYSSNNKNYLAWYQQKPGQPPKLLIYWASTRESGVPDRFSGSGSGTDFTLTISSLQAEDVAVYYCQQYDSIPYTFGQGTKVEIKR
notes: Fab mini-antibody format Fab-dHLX-MH, a dimer of the Fab monomer; also called MSPRO21 dimeric dHLX format; Fab-dHLX

The binders below were run against T1, FGFR3 (wild type) on cells (human, UniProt P22607 23-806) (assay: cell-based or functional assay).
T1 sequence (P22607 23-806 limits assumed): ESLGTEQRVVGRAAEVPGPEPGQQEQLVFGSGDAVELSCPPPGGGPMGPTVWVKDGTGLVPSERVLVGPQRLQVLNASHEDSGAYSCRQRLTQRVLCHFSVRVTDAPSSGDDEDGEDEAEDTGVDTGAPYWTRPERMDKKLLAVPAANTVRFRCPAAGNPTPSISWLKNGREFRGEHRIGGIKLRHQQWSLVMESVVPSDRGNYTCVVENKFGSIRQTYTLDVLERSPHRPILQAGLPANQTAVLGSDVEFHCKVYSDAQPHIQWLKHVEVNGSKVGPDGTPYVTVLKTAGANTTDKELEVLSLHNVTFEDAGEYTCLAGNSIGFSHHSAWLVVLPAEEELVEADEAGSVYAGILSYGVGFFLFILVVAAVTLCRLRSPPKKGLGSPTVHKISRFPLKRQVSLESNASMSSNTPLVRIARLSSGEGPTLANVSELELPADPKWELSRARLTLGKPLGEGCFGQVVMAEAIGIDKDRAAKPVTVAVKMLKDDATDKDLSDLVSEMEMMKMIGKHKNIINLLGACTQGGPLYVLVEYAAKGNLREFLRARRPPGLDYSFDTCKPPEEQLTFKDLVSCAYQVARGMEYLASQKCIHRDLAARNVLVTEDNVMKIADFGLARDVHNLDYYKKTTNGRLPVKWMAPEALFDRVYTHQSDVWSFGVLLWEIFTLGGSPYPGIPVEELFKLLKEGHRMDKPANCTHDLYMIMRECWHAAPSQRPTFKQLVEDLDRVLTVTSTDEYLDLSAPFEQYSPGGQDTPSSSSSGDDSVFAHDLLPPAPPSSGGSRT

| Binder | IC50 FR3 (FGF9), FDCP-FGFR3 proliferation assay [nM] |
| --- | --- |
| B1 | 220 |
| B2 | 45 |
| B3 | 50 |
| B4 | 70 |
| B5 | 20 |
| B6 | 70 |

Target: T1, FGFR3 (wild type) on cells
Assay: cell-based or functional assay
Remark: another data set of the same source

| Binder | amount of Fab that inhibits FGFR3 activation (JNK signaling) in RCJ-FR3 cells [µg] |
| --- | --- |
| B5 | < 5 |

Each binder was assayed against T2, FR3exFc (human) (assay: ELISA, FGFR3/Fc anchored on anti-human Fc coated wells, about 5 µg Fab per well (labelled with cold iodine at 0.04 mM NaI), detection with anti-human Fab; parallel wells without FR3/Fc).
T2 construct: also called FGFR3/Fc; FR3/Fc
T2 sequence (chain, as listed by the source limits assumed): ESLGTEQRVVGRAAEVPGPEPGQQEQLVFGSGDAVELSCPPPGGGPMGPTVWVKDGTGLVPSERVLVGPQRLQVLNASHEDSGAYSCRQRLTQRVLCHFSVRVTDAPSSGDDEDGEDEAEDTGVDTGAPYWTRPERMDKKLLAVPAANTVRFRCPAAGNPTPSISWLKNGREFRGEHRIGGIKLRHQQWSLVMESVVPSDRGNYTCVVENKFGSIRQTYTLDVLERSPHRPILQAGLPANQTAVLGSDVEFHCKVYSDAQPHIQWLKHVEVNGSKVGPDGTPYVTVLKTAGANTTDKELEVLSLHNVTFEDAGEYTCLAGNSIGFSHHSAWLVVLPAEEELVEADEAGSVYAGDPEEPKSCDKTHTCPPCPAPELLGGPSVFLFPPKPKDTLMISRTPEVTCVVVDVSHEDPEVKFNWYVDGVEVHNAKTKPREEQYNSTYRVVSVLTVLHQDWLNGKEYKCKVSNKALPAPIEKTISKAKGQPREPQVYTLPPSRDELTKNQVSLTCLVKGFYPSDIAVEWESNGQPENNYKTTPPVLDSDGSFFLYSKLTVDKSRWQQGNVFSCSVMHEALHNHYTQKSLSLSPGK
Description: To determine the effect of iodination on Fab activity, 50 μg of MSPRO29 was first labeled with cold iodine using Pierce IodoGen coated tubes. The process was carried out either without iodine, with 0.04 mM NaI (low I) or with 1 mM NaI (high I). MSPRO29 was then purified through a SEPHADEX® G-50 column. The ability of the modified Fab to bind FGFR3 was determined by ELISA. MAXISORP® wells were coated with anti-human Fc. FGFR3/Fc was then anchored to the wells. In parallel, a similar set of wells was left in blocking buffer only (no FR3/Fc, hatched bars). The unmodified (no I) or the modified MSPRO29 (low or high, 2 G-50 fractions each, 1 and 2) were added at approximately 5 μg/well and binding was measured with anti-human Fab. Fresh MSPRO29 and buffer alone were included as controls (FIG. 14: FGFR3/Fc, checkered bars; no FGFR3/Fc, hatched bars). MS-PRO29 was labeled with 1 mCi ¹²⁵I. The specific activity of the Fab was 17 μCi/μg.

| Binder | binding result |
| --- | --- |
| B7 | binds |

The binders below were run against T2, FR3exFc (assay: BIAcore, Fab-dHLX-MH miniantibody).

| Binder | Kd [nM] |
| --- | --- |
| B8 | 1.2 |

What follows are binders tested against T2, FR3exFc (assay: BIACORE, FGFR3 captured on an anti-Fc chip).
Description: (§1) The affinity measurements were performed by BIACORE® analysis according to the standard procedure recommended by the supplier (Pharmacia). The anti-Fc antibody was coupled via the EDC/NHS chemistry to the chip and subsequently FGFR3 was captured. The Fabs of the invention were then bound to this surface.

| Binder | Kd [nM] |
| --- | --- |
| B1 | 4 |
| B2 | 3.7 |
| B3 | 9 |
| B4 | 4 |
| B5 | 6 |
| B6 | 10 |

The binders below were run against T3, FR1exFc (UniProt P11362 22-376, limits assumed) (assay: ELISA, FGFR/Fc captured on anti-human Fc coated plate, detection with anti-human Fab-HRP).
T3 construct: extracellular domain; also called FGFR1/Fc; FR1/Fc; not shown: Fc part; the construct of FR1exFc is not described
T3 sequence (looked up): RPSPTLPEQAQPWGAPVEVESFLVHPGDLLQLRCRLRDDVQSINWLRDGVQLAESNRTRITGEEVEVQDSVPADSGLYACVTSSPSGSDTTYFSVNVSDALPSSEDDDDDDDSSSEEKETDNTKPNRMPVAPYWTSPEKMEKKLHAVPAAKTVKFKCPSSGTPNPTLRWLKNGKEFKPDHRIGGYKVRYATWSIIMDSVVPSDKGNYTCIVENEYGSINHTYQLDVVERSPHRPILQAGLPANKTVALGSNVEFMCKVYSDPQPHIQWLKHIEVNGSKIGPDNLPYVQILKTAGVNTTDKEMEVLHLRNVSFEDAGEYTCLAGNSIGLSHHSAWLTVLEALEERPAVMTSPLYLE

| Binder | binding result |
| --- | --- |
| B8 | no binding |
| B9 | no binding |

What follows are binders tested against T1, FGFR3 (wild type) on cells (assay: indirect FACS-Scatchard).

| Binder | Kd [nM] |
| --- | --- |
| B1 | 4 |
| B3 | 0.3 |
| B4 | 1.4 |
| B5 | 0.4 |
| B6 | 0.3 |

What follows are binders tested against T1, FGFR3 (wild type) on cells (assay: FACS).

| Binder | Kd [nM] |
| --- | --- |
| B1 | 4 |
| B3 | 0.3 |
| B4 | 1.4 |
| B5 | < 1 |

Target: T1, FGFR3 (wild type) on cells
Assay: cell-based or functional assay
Remark: another data set of the same source

| Binder | IC50, FDCP-FGFR3 proliferation assay with FGF9, dimeric dHLX format [nM] | IC50, FDCP-FGFR3 proliferation assay with FGF9, monomeric Fab (in parentheses) [nM] |
| --- | --- | --- |
| B8 | 26 | – |
| B4 | – | 70 |
| B9 | 61 | – |
| B10 | 20 | – |

What follows are binders tested against T2, FR3exFc (assay: BIAcore; number in parentheses taken as the monomeric Fab).
Description: as §1

| Binder | Kd [nM] |
| --- | --- |
| B1 | 4 |
| B3 | 9 |
| B4 | 4 |
| B6 | 10 |

Target: T2, FR3exFc
Assay: BIACORE, FGFR3 captured on an anti-Fc chip
Remark: another data set of the same source
Description: as §1

| Binder | Kd [nM] |
| --- | --- |
| B1 | 4 |
| B3 | 9 |
| B4 | 4 |
| B5 | 6 |
| B6 | 10 |

Each binder was assayed against T3, FR1exFc (assay: Affinity to FGFR1 (BIACORE and/or FACS)).

| Binder | Kd [nM] |
| --- | --- |
| B2 | 2.5 |
| B3 | 160 |
| B4 | 32 |
| B5 | 29 |

Each binder was assayed against T2, FR3exFc (assay: BIACORE).
Description: as §1

| Binder | koff [s⁻¹] |
| --- | --- |
| B1 | 0.0004 |
| B2 | 0.002 |
| B3 | 0.004 |
| B4 | 0.0005 |
| B5 | 0.0014 |
| B6 | 0.0054 |

What follows are binders tested against T2, FR3exFc (assay: BIAcore, Fab-dHLX-MH miniantibody; Fab-dHLX-MH miniantibody (dimer)).

| Binder | Kd [nM] |
| --- | --- |
| B9 | 4.3 |
| B10 | 2.2 |

The binders below were run against T4, hFR3^D2Fc (human, UniProt P22607 143-250) (assay: ELISA, Fc fusion anchored on an anti-human Fc coated plate, bound Fab detected with HRP anti-human Fab).
T4 construct: Only domain 2 of the entry stood in the assay; also called product of pChFR3^D2Fc; not shown: human Fc
T4 sequence: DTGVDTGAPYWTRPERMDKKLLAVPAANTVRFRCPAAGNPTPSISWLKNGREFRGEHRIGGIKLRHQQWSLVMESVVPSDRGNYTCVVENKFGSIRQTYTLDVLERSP
Excerpt: Constructs comprising cDNAs that code for segments of the extracellular domain of FGFR3 were generated (FIG. 10). D2 comprises Ig domain 2, D2-3 comprises Ig domains 2 and 3, and D1-3 comprises Ig domains 1, 2 and 3. These constructs include pChFR3^D2Fc that codes for Ig-like domain 2 of FGFR3 and pChFR3^{D2,3}Fc that codes for domain 2 and 3, both as human Fc fusions. The corresponding chimeric proteins, as well as the control hFR3exFc (containing domains 1, 2 and 3) were anchored to an ELISA plate coated with a human Fc antibody. A panel of 8 best Fabs, MSPRO2, 11, 12, 21, 24, 26, 28 and 29, were added, and bound Fab was determined with HRP-α human Fab (FIG. 11). […] Both bind to the Ig like domain 2 while the others require domain 3 for binding. It was then tested whether or not Fabs that belong to the second group would distinguish the FGFR3IIIc isoform from the FGFRIIIb from. FDCP-FR3IIIb or FDCP-FR3IIIc cells were incubated in the presence of 1.25 ng/ml FGF9 with increasing doses of either MSPRO12 or MSPRO29. Ly6.3 was included as control. After 2 days in culture, cell proliferation was measured with the XTT reagent. Clearly, MSPRO29 (open triangle) was completely ineffective against the IIIb isoform (FIG. 12).

| Binder | binding result |
| --- | --- |
| B1 | no binding |
| B3 | no binding |
| B4 | no binding |
| B5 | no binding |
| B6 | no binding |
